Columns and labels:
[1] = tested on: DEVD-pNA hydrolysis activity in 293 cell cytosolic extracts; assay: Cytochrome c/dATP-induced caspase activation (DEVD hydrolysis) in 293 cell cytosolic extracts; type: biochemical, human; details: 293 extracts + cytochrome c/dATP; GST-XIAP 0.2 μM, GST controls 2 μM, His6-S5a 5 μM; untreated ≈0.01
Protocol: (§1) Cells were washed with ice cold buffer A (20 mM Hepes (pH 7.5), 10 mM KCl, 1.5 mM MgCl2, 1 mM EDTA, 1 mM DTT and 0.1 mM PMSF) and suspended in 1 vol buffer A, then incubated on ice for 20 min. 293 cells were disrupted by passage 15× through a 26 gauge needle and Jurkat T cells were disrupted by dounce homogenization in 2 ml using 15 strokes with a pestle B. Cell extracts (10–15 mg total protein/ml) were clarified by centrifugation at 16,000×g for 30 min, then the NaCl concentration was increased by 50 mM. Cytosolic fractions were used immediately or stored frozen at −80° C.
(§2) Caspase activity was assayed by release of either 7-amino-4-trifluoromethyl-coumarin (AFC) or p-nitroanilide (pNA) from benzylyoxycarbonyl-DEVD (SEQ ID NO: 2) or benzylyoxycarbonyl-YVAD (SEQ ID NO: 3) synthetic peptides using a Molecular Devices Spectromax 340 for AFC labeled peptides or Perkin/Elmer LS50B for pNA labeled peptides (see Example II; see, also, Zhou et al., supra, 1997). Cytosolic extracts from 293 cells or Jurkat T cells were used directly (negative control) or were treated with 1 μM cytochrome c and 1 mM dATP or with cytochrome c, dATP and 0.2 μM GST-XIAP. Additional control reactions were performed by substituting 2 μM GST-Bcl-2, GST-Bax, GST-NM23 or GST-CD40 cytosolic domain, or 5 μM His6-S5a protein for GST-XIAP. DEVD-pNA hydrolysis was measured at various times and multiple experiments were performed using several different GST-XIAP preparations.

[2] = tested on: DEVD-pNA hydrolysis activity in Jurkat T cell cytosolic extracts; assay: Cytochrome c/dATP-induced caspase activation (DEVD-pNA hydrolysis) in Jurkat T cell cytosolic extracts; type: biochemical; details: for DEVD-pNA hydrolysis, ΔA405 after 15 min: untreated ≈0.02; for DEVD-pNA hydrolysis, ΔA405 after 20 min: untreated ≈0.025
Protocol: as §1, §2

[3] = target: T1, caspase-3 (Homo sapiens, UniProt P42574); assay: GST pull-down binding to caspase-3; details: glutathione-Sepharose beads, immunoblot
T1 construct: to produce the 17–20 kDa mature, fully processed large subunit of the active caspase-3 enzyme; a smaller, fully processed, subunit of about 11 kDa; His6; made in house; host or cells: E. coli BL21(DE3)pLysS
T1 sequence (P42574 29-175 limits assumed): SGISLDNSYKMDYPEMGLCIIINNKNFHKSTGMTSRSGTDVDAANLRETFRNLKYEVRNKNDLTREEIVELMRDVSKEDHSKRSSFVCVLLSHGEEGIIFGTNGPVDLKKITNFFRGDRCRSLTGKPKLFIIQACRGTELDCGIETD
T1 sequence (P42574 176-277 limits assumed): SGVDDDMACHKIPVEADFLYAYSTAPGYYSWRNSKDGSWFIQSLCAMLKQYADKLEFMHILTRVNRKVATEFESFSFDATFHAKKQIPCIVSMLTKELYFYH
Protocol: (§3) Following incubation at 4° C. for 60 min, the beads were removed by centrifugation and washed twice with 100 vol 50 mM Tris (pH 7.5), 150 mM KCl, 2 mM DTT and 0.025% Triton-X100, then subjected to SDS-PAGE and immunoblot assay (see Example I.B.3).

[4] = target: T2, caspase-7 (Homo sapiens, UniProt P55210); assay: GST pull-down binding to caspase-7; details: glutathione-Sepharose beads, immunoblot
T2 construct: Purified active caspase concentrations ranged from 0.1 nM to 10 nM; His6; made in house; host or cells: E. coli BL21(DE3)pLysS
T2 sequence (P55210 24-198 limits assumed): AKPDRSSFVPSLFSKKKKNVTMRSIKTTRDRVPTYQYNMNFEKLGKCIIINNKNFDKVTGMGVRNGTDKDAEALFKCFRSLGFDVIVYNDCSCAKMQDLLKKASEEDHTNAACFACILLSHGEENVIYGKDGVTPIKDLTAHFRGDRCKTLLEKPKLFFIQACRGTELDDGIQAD
T2 sequence (P55210 207-303 limits assumed): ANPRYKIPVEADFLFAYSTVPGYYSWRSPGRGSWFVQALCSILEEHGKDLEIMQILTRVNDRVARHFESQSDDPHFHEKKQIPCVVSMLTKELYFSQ
Protocol: as §3

[5] = target: T2, caspase-7; assay: Inhibition of purified recombinant caspase-7, DEVD substrate hydrolysis and progress curves; type: biochemical; details: DEVD-pNA hydrolysis
Protocol: Purified recombinant caspase-1, caspase-3, caspase-6, caspase-7 or caspase-8 were incubated with DEVD-pNA, either alone or with a 10-fold to 50-fold molar excess of GST-XIAP (20 μM) and substrate hydrolysis was measured. Purified active caspase concentrations ranged from 0.1 nM to 10 nM. XIAP concentration ranged from 0.1 nM to 500 nM. Assays were performed in caspase buffer (50 mM Tris, pH 7.4, 100 mM NaCl, 10% sucrose, 5–10 mM DTT, 1 mM EDTA and 0.1% CHAPS).

[6] = target: T1, caspase-3; assay: Inhibition of purified recombinant caspase-3, DEVD substrate hydrolysis and progress curves; type: biochemical; details: DEVD-pNA hydrolysis
Protocol: Purified recombinant caspase-1, caspase-3, caspase-6, caspase-7 or caspase-8 were incubated with DEVD-pNA, either alone or with a 10-fold to 50-fold molar excess of GST-XIAP ([…]) and substrate hydrolysis was measured. Purified active caspase concentrations ranged from 0.1 nM to 10 nM. XIAP concentration ranged from 0.1 nM to 500 nM. Assays were performed in caspase buffer (50 mM Tris, pH 7.4, 100 mM NaCl, 10% sucrose, 5–10 mM DTT, 1 mM EDTA and 0.1% CHAPS).
Equilibria were determined from progress curves when substrate hydrolysis reached a steady-state; slopes were calculated by curve fit analysis using the cricket graph program. Experiments were performed using purified recombinant caspase-3, caspase-6, or caspase-7. DEVD-AFC hydrolysis was measured using 0.1 nM caspase and a range of concentrations (0.2 to 12 μM) of recombinant XIAP (rXIAP). […] Average ratio velocities (vi/vo, where “vi” indicates presence of GST-XIAP and “vo” indicates absence of GST-XIAP) were determined.
Caspase activity was determined essentially as described in Example II, using the benzylyoxycarbonyl-DEVD-AFC (SEQ ID NO: 2) substrate and was assayed at 37° C. using the Perkin-Elmer LS50B fluorometric plate reader in the kinetic mode with excitation and emission wavelengths of 400 nm and 505 nm, respectively. […] Reactions were performed in caspase buffer (50 mM Hepes, 100 mM NaCl, 1 mM EDTA, 0.1% CHAPS, 10% sucrose, 5 mM DTT). The inhibition constant, Ki, was calculated as described (Zhou et al., supra, 1997). Immunoblot analysis was performed as described in Example I.B.3.

[7] = listed as GST-fusion containing the RING domain

GST-Bax: recombinant control protein, GST fusion of Bax [reference compound]
DEVD-pNA hydrolysis, ΔA405 after 15 min [1]: ≈ 0.1
DEVD-pNA hydrolysis, ΔA405 after 15 min [2]: ≈ 0.09
DEVD-pNA hydrolysis, ΔA405 after 20 min [2]: ≈ 0.1

B1: His6-S5a: recombinant control protein, His6-S5a proteasome subunit (protein, UniProt P55036 1-377, looked up)
26S proteasome non-ATPase …: MVLESTMVCVDNSEYMRNGDFLPTRLQAQQDAVNIVCHSKTRSNPENNVGLITLANDCEVLTTLTPDTGRILSKLHTVQPKGKITFCTGIRVAHLALKHRQGKNHKMRIIAFVGSPVEDNEKDLVKLAKRLKKEKVNVDIINFGEEEVNTEKLTAFVNTLNGKDGTGSHLVTVPPGPSLADALISSPILAGEGGAMLGLGASDFEFGVDPSADPELALALRVSMEEQRQRQEEEARRAAAASAAEAGIATTGTEDSDDALLKMTISQQEFGRTGLPDLSSMTEEEQIAYAMQMSLQGAEFGQAESADIDASSAMDTSEPAKEEDDYDVMQDPEFLQSVLENLPGVDPNNEAIRNAMGSLASQATKDGKKDKKEEDKK
modifications: His6 tag
notes: recombinant control protein, His6-S5a proteasome subunit
DEVD-pNA hydrolysis, ΔA405 after 15 min [1]: ≈ 0.1
DEVD-pNA hydrolysis, ΔA405 after 15 min [2]: ≈ 0.09
DEVD-pNA hydrolysis, ΔA405 after 20 min [2]: ≈ 0.1

B2: NAIP: neuronal apoptosis inhibitory protein, GST construct (protein, UniProt Q13075 1-1403, looked up)
Baculoviral IAP …: MATQQKASDERISQFDHNLLPELSALLGLDAVQLAKELEEEEQKERAKMQKGYNSQMRSEAKRLKTFVTYEPYSSWIPQEMAAAGFYFTGVKSGIQCFCCSLILFGAGLTRLPIEDHKRFHPDCGFLLNKDVGNIAKYDIRVKNLKSRLRGGKMRYQEEEARLASFRNWPFYVQGISPCVLSEAGFVFTGKQDTVQCFSCGGCLGNWEEGDDPWKEHAKWFPKCEFLRSKKSSEEITQYIQSYKGFVDITGEHFVNSWVQRELPMASAYCNDSIFAYEELRLDSFKDWPRESAVGVAALAKAGLFYTGIKDIVQCFSCGGCLEKWQEGDDPLDDHTRCFPNCPFLQNMKSSAEVTPDLQSRGELCELLETTSESNLEDSIAVGPIVPEMAQGEAQWFQEAKNLNEQLRAAYTSASFRHMSLLDISSDLATDHLLGCDLSIASKHISKPVQEPLVLPEVFGNLNSVMCVEGEAGSGKTVLLKKIAFLWASGCCPLLNRFQLVFYLSLSSTRPDEGLASIICDQLLEKEGSVTEMCVRNIIQQLKNQVLFLLDDYKEICSIPQVIGKLIQKNHLSRTCLLIAVRTNRARDIRRYLETILEIKAFPFYNTVCILRKLFSHNMTRLRKFMVYFGKNQSLQKIQKTPLFVAAICAHWFQYPFDPSFDDVAVFKSYMERLSLRNKATAEILKATVSSCGELALKGFFSCCFEFNDDDLAEAGVDEDEDLTMCLMSKFTAQRLRPFYRFLSPAFQEFLAGMRLIELLDSDRQEHQDLGLYHLKQINSPMMTVSAYNNFLNYVSSLPSTKAGPKIVSHLLHLVDNKESLENISENDDYLKHQPEISLQMQLLRGLWQICPQAYFSMVSEHLLVLALKTAYQSNTVAACSPFVLQFLQGRTLTLGALNLQYFFDHPESLSLLRSIHFPIRGNKTSPRAHFSVLETCFDKSQVPTIDQDYASAFEPMNEWERNLAEKEDNVKSYMDMQRRASPDLSTGYWKLSPKQYKIPCLEVDVNDIDVVGQDMLEILMTVFSASQRIELHLNHSRGFIESIRPALELSKASVTKCSISKLELSAAEQELLLTLPSLESLEVSGTIQSQDQIFPNLDKFLCLKELSVDLEGNINVFSVIPEEFPNFHHMEKLLIQISAEYDPSKLVKLIQNSPNLHVFHLKCNFFSDFGSLMTMLVSCKKLTEIKFSDSFFQAVPFVASLPNFISLKILNLEGQQFPDEETSEKFAYILGSLSNLEELILPTGDGIYRVAKLIIQQCQQLHCLRVLSFFKTLNDDSVVEIAKVAISGGFQKLENLKLSINHKITEEGYRNFFQALDNMPNLQELDISRHFTECIKAQATTVKSLSQCVLRLPRLIRLNMLSWLLDADDIALLNVMKERHPQSKYLTILQKWILPFSPIIQK
modifications: GST tag
binding of caspase-3 (in words) [3]: bound
binding of caspase-7 (in words) [4]: bound

B3: GST fusion protein containing the RING domain: GST fusion of XIAP amino acids 338–497 (RING domain) (protein, UniProt P98170 338-497, looked up, fragment)
chain: YINNIHLTHSLEECLVRTTEKTPSLTRRIDDTIFQNPMVQEAIRMGFSFKDIKKIMEEKIQISGSNYKSLEVLVADLVNAQKDSMQDESSQTSLQKEISTEEQLRRLQEEKLCKICMDRNIAIVFVPCGHLVTCKQCAEAVDKCPMCYTVITFKQKIFMS
modifications: GST fusion
inhibition of caspase-7 in vitro (in words) [5]: had no effect
inhibition of caspase-7 in vitro (in words) [5, 7]: no significant effect
inhibition of caspase-3 in vitro (in words) [6]: had no effect
inhibition of caspase-3 in vitro (in words) [6, 7]: no significant effect

B4: GST fusion protein containing only the three BIR domains of XIAP: GST fusion of XIAP amino acids 1–337 (three BIR domains) (protein, UniProt P98170 1-337, looked up, fragment)
chain: MTFNSFEGSKTCVPADINKEEEFVEEFNRLKTFANFPSGSPVSASTLARAGFLYTGEGDTVRCFSCHAAVDRWQYGDSAVGRHRKVSPNCRFINGFYLENSATQSTNSGIQNGQYKVENYLGSRDHFALDRPSETHADYLLRTGQVVDISDTIYPRNPAMYSEEARLKSFQNWPDYAHLTPRELASAGLYYTGIGDQVQCFCCGGKLKNWEPCDRAWSEHRRHFPNCFFVLGRNLNIRSESDAVSSDRNFPNSTNLPRNPSMADYEARIFTFGTWIYSVNKEQLARAGFYALGEGDKVKCFHCGGGLTDWKPSEDPWEQHAKWYPGCKYLLEQKGQE
modifications: GST fusion
inhibition of caspase-7 in vitro (in words) [5]: potently inhibited
inhibition of caspase-3 in vitro (in words) [6]: potently inhibited
